US20250129135A1, “Multi-Agonist and Use Thereof” (priority 2021, published 2025)

T1: human GIP receptor (human, UniProt P48546 22-466)
T1 sequence (looked up): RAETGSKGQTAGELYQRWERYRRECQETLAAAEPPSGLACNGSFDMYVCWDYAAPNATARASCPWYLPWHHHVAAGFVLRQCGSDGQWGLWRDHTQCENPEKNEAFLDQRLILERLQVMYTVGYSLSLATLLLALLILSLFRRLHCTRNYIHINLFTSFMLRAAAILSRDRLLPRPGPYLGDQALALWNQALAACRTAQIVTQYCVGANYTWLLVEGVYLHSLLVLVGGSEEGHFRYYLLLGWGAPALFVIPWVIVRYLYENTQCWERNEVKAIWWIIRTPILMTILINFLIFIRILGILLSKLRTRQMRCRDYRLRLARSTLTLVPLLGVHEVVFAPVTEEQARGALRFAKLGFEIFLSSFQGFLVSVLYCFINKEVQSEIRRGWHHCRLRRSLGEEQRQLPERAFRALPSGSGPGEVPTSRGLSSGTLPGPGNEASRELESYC


Assays:
C57 BL/6J DIO mice = assay: In vivo pharmacodynamics in high-fat diet induced obesity (DIO) mice; design: species or system mouse; conditions: Table 9-1; 3 nmol/kg; Day 15; Mean±SEM
Description: High-fat diet induced obesity (DIO) mice have characteristics such as obesity, elevated blood sugar, insulin resistance, and lipid abnormalities, all of which are very significant metabolic syndromes similar to a human body. The effects of the compounds of the present application on body weight, food intake, blood sugar, and lipids in C57 BL/6J DIO mice were studied.
Obesity was induced in mice by feeding with a high-fat diet (60 kcal % of calories from fat). […] After grouping, one animal was raised in each cage for one week, during which each of the animals was injected subcutaneously (S.C.) with a solvent (1×PBS, 5 ml/kg) to pre-adapt the experimental operation process.
After the preparation of animals, vehicle control or compounds were administered to groups of animals by subcutaneous injection, in which the compounds were dissolved in 1×PBS, the dosage was 5 ml/kg, and the administration operation was started at 9:00 am and conducted once every three days (Q3D) for 15 days. Throughout the entire experimental study, animal weight and food intake were measured daily before administration, and compared with initial weight and food intake of the same animal before administration to calculate a percentage change in animal weight (%) and cumulative food intake, so as to evaluate the impact of compounds on changes in body weight and food intake.
At the end point of the experiment (Day 15), the body weight of the mice was measured, and then fasting blood glucose was measured by taking blood from the tail tip of broken tail without anesthesia. After the blood collection, the animals were anesthetized with CO2 and euthanized. Then, blood was taken from the heart and plasma was separated by centrifugation. The plasma was used to measure total cholesterol (TC), low-density lipoprotein cholesterol (LDL-C), triglycerides (TG), and blood insulin content. The liver was separated for homogenization, and then centrifuged to obtain the supernatant for determining triglyceride content in the liver.
All results were expressed in Mean±SEM, and the results were analyzed by one-way ANOVA using GraphPad Prism 5 software, followed by Dunnett's post hoc test compared to the Vehicle control group. The difference at the p<0.05 level was considered statistically significant.

human GIP receptor = molecular target: T1, human GIP receptor; assay: cell-based or functional assay
human GLP-1 receptor = human GLP-1 receptor (human, UniProt P43220 24-463); assay: cell-based or functional assay
human GCG receptor = human GCG receptor (human, UniProt P47871 26-477); assay: cell-based or functional assay
Sequence of human GCG receptor (P47871 26-477): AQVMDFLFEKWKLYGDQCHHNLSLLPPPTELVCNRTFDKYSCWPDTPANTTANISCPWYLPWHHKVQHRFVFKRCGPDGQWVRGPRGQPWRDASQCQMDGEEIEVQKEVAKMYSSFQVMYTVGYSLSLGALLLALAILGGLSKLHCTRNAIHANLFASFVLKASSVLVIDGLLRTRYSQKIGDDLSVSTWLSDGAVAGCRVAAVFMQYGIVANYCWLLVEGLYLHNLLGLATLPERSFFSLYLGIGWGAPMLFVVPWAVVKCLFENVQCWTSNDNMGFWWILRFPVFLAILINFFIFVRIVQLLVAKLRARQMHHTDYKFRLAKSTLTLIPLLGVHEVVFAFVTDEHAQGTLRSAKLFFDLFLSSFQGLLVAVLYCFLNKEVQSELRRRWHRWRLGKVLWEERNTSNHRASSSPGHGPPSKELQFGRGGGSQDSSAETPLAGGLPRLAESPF

Row | Molecule | Liver TG (C57 BL/6J DIO mice) [mg] | cAMP EC50, CHO cells stably overexpressing human GIP R (human GIP receptor) [nM] | cAMP Rel. A (%) against human GIP, human GIP R cells (human GIP receptor) [%] | cAMP Rel. A (%) against human GLP-1 (7-37), human GLP-1 R cells (human GLP-1 receptor) [%] | cAMP EC50, HEK-293 cells stably overexpressing human GCG R (human GCG receptor) [nM] | cAMP Rel. A (%) against human GCG, human GCG R cells (human GCG receptor) [%] | cAMP EC50, HEK-293 cells stably overexpressing human GLP-1 R (human GLP-1 receptor) [nM]
1 | CC[C@H](C)[C@H](NC(=O)[C@H](Cc1ccccc1)NC(=O)[C@H](C)NC(=O)C(C)(C)NC(=O)[C@H](CCC(N)=O)NC(=O)[C@H](C)NC(=O)[C@H](CCCCNC(=O)COCCOCCNC(=O)COCCOCCNC(=O)CC[C@H](NC(=O)CCCCCCCCCCCCCCCCCCC(=O)O)C(=O)O)NC(=O)[C@H](CCCCN)NC(=O)[C@H](CC(=O)O)NC(=O)[C@H](CC(C)C)NC(=O)[C@](C)(CC(C)C)NC(=O)[C@@H](NC(=O)[C@H](CO)NC(=O)[C@H](Cc1ccc(O)cc1)NC(=O)[C@H](CC(=O)O)NC(=O)[C@H](CO)NC(=O)[C@@H](NC(=O)[C@](C)(Cc1ccccc1F)NC(=O)[C@@H](NC(=O)CNC(=O)[C@H](CCC(N)=O)NC(=O)C(C)(C)NC(=O)[C@@H](N)Cc1ccc(O)cc1)[C@@H](C)O)[C@@H](C)O)[C@@H](C)CC)C(=O)N[C@@H](CCC(=O)O)C(=O)N[C@@H](Cc1ccccc1)C(=O)N[C@@H](CC(C)C)C(=O)N[C@@H](CC(C)C)C(=O)N[C@@H](CCC(=O)O)C(=O)NCC(=O)NCC(=O)N1CCC[C@H]1C(=O)N[C@@H](CO)C(=O)N[C@@H](CO)C(=O)NC(C)(C)C(=O)N[C@@H](Cc1c[nH]cn1)C(=O)N1CCC[C@H]1C(=O)N1CCC[C@H]1C(=O)N1CCC[C@H]1C(=O)N[C@@H](CO)C(N)=O [Compound 24] | 30.7 ± 1.31 | – | – | – | – | – | –
2 | YXQGTXTSDYSIFLDKKAQXAFIEYLLEGGPSSGAPPXS (Aib at 2; αMeF(2F) at 6; Lys 17 side chain AEEAc-AEEAc-γGlu-CO(CH2)18COOH; Aib at 20; Ac3c at 38; C-terminal amide (NH2)) [Compound 4] | – | 0.057 | 318 | 107 | 0.071 | 80.3 | –
3 | YXQGTXTSDYSIFLDKKAQXAFIEFLLEGGPSSGAPPXS (Aib at 2; αMeF(2F) at 6; Lys 17 side chain AEEAc-AEEAc-γGlu-CO(CH2)18COOH; Aib at 20; Ac3c at 38; C-terminal amide (NH2)) [Compound 5] | – | – | 369 | 200 | – | 81.4 | 0.022
4 | YXQGTXTSDYSIFLDKKAQXAFIEFLLETGPSSGAPPPS (Aib at 2; αMeF at 6; Lys 17 side chain AEEAc-AEEAc-γGlu-CO(CH2)18COOH; Aib at 20; C-terminal amide (NH2)) [Compound 12] | – | – | 221 | 314 | – | 13.7 | 0.014
5 | YXQGTXTSDYSIFLDKKAQXAFIEYLLETGPSSGAPPPS (Aib at 2; αMeF at 6; Lys 17 side chain AEEAc-AEEAc-γGlu-CO(CH2)18COOH; Aib at 20; C-terminal amide (NH2)) [Compound 13] | – | – | 566 | 367 | – | 110 | 0.012
6 | YXQGTXTSDYSIXLDKKAQXAFIEFLLETGPSSGAPPPS (Aib at 2; αMeF at 6; αMeL at 13; Lys 17 side chain AEEAc-AEEAc-γGlu-CO(CH2)18COOH; Aib at 20; C-terminal amide (NH2)) [Compound 14] | – | 0.011 | 1650 | 440 | – | 50 | 0.01
7 | YXQGTXTSDYSIFLDKKAQXAFIEFLLETGPSSGAPPXS (Aib at 2; αMeF(2F) at 6; Lys 17 side chain AEEAc-AEEAc-γGlu-CO(CH2)18COOH; Aib at 20; Ac3c at 38; C-terminal amide (NH2)) [Compound 9] | – | – | 385 | 259 | – | 91.9 | 0.017
